Measured values taken from US7888068B2, “Cloning of honey bee allergen C” (PLS-Design GmbH, priority 2006, dated 2011).
“Also recorded” adds a separate entry of the source.

Assays:
[1] = Dipeptidyl peptidase activity assay with Gly-Pro p-nitroanilide substrate; assay type: biochemical; details: 0.5 mM Gly-Pro-pNA, 25° C., monitored at 405 nm, compared to buffer alone
Description: One putative target of the enzyme might be the specific cleavage of the N-terminal peptide of pro-melittin to generate active melittin. The cleavage releases dipeptides with a C-terminal proline. Activity of such dipeptidases can be examined using the substrate Gly-Pro p-nitroanilide hydrochloride (Ref 22). Purified Api m 5 in NTA-binding buffer containing 300 mmol/L was incubated with 0.5 mM glycylpropyl p-nitroanilide (Gly-Pro-pNA, Sigma-Aldrich GmbH, Munich, Germany) as a substrate at 25° C. Released p-nitroaniline was spectrophotometrically monitored at 405 nm (FIG. 10).

[2] = system: IgE from pooled serum from honey bee allergic patients; test: Immunoprinting of enriched Api m 5 with pooled serum from honey bee allergic patients (AlaBLOT, anti-IgE detection); assay type: binding, human; details: pooled serum from honey bee allergic patients diluted 1:10; anti-IgE alkaline phosphatase conjugate; BSA negative control
Description: Detection was performed with anti-IgE alkaline phosphatase conjugate (DPC Alablot system). Lane 1: BSA, negative control; Lane 2: honey bee venom; Lane 3: Enriched Api m 5 fraction; Lane 4: Protein standard (PageRuler™ Prestained Protein Standard, Fermentas GmbH).
Immunoprinting was performed to verify the allergic potential of enriched Api m 5. Two SDS-PAGE gel slabs with each containing samples of bovine serum albumin, honey bee venom and bee venom enriched in Api m 5, were run and eletroblotted onto a nitrocellulose membranes (Protran™, Whatman GmbH, Dassel, Germany). The nitrocellulose membranes were pre-equilibrated in transfer buffer (20 mm CAPS, pH 11, 10% (v/v) methanol). Transfer was done at 50V for 3 hours submersed in blotting buffer in a blotting chamber (model TE22, Amersham Pharmacia, Freiburg, Germany) according to the instructions of the manufacturer. One membrane was subsequently stained with coomassie brilliant blue G250 according to the instructions of the manufacturer. […] Using the AlaBLOT system kit (DPC Biermann GmbH, Bad Nauheim, Germany) blocked sample strips were incubated with pooled serum from honey bee allergic patients diluted 1:10, washed and analyzed for binding of anti-IgE antibodies.

bee venom allergic sera = details: two studies (Ref. 10); cited from earlier work
[3] = system: phospholipase A2 (Api m 1), hyaluronidase (Api m 2), acid phosphatase (Api m 3), and melittin (Api m 4); details: versus Api m 1, Api m 2, Api m 3, Api m 4 and other minor components (Ref. 14); cited from earlier work

Row | Molecule | dipeptidyl peptidase activity (release of p-nitroaniline) [1] | binding of IgE / allergic potential in immunoprinting [2] | reaction of bee venom allergic sera (bee venom allergic sera) | cross-reactivity in immunodiffusion [3]
1 | recombinant Api m 5: cloned recombinant Api m 5 expressed from vector pIB/Api5 with melittin signal sequence and His-tag (protein, listed as Apis mellifera, His-tag, melittin signal) MEVLVQLALLLVVHGSLVVLVAGKSVPRVIDQDLERYEPLEEEDHRGARVPFNLEETYDQSFRANSFNGTWKTDREILYSDNYVGDIRLFDVTTGSGTVLLDSSVTADFDKASVMFSFDNSHVAIGHDYVNGFRYSIHQKCTVYNIKSRTFTDIANGDRIPLFKWSPTRNALIYVHKNDIYYQVFFEGGSDTRRITNTGVPDIVFNGIPDWVYEEEVLGSPVAFWISPDGRHLAFATFNDTNVRDIVISKYGSPGNSRDQYPNEIRIKYPKAGTTNPFVSLSVIDLHDPSSKLIDLPPPVDVVGADNVLYTANWRRDGEIVATWTNRVQNKAQLVLYDTKGNANNIYYEEETEGWLRIQPPLYHDRYVIVAKLQDSGTKAGRFLHATRLEYRNGALVDETDLTPGTCEVISLLLVDHARARLYYLGTELGKPSHKNLYSVQLSGNEPPVCLSCDVLTPEGNRCTYAYAYFSTNGSHYALYCAGPDPVFIAIVNANHRQISIWEENRSLRRKLAARTQPIVKNFNVNANGYTNKVKLYLPPDFDETKKYPLLITVYAGPNTIRITEEATYGFESYIVTNRSVIYGRIDGRGSAYKGSKMLFEIYRRLGTVEIEDQIIITRTLQEKYSWIDSNRTGIWGWSYGGFSAAMVLATDAESVFKCGISVAPVTSWIYYDSLYTERFMGLPTPEDNQSGYNDTDVSRRVEGMRGKKYMLIHGTADDNVHYQQTMMLNKALVNSDIMFQQQTYTDEAHALGNVFPHLYHTTDRFWANCLGYSH | Clearly the peptidase activity of recombinant Api m 5 in releasing the chromogenic label from the dipeptide can be seen; also recorded: showed a dipeptidyl peptidase activity | – | – | –
2 | Api m 5 (protein) KSVPRVIDQDLERYEPLEEEDHRGARVPFNLEETYDQSFRANSFNGTWKTDREILYSDNYVGDIRLFDVTTGSGTVLLDSSVTADFDKASVMFSFDNSHVAIGHDYVNGFRYSIHQKCTVYNIKSRTFTDIANGDRIPLFKWSPTRNALIYVHKNDIYYQVFFEGGSDTRRITNTGVPDIVFNGIPDWVYEEEVLGSPVAFWISPDGRHLAFATFNDTNVRDIVISKYGSPGNSRDQYPNEIRIKYPKAGTTNPFVSLSVIDLHDPSSKLIDLPPPVDVVGADNVLYTANWRRDGEIVATWTNRVQNKAQLVLYDTKGNANNIYYEEETEGWLRIQPPLYHDRYVIVAKLQDSGTKAGRFLHATRLEYRNGALVDETDLTPGTCEVISLLLVDHARARLYYLGTELGKPSHKNLYSVQLSGNEPPVCLSCDVLTPEGNRCTYAYAYFSTNGSHYALYCAGPDPVFIAIVNANHRQISIWEENRSLRRKLAARTQPIVKNFNVNANGYTNKVKLYLPPDFDETKKYPLLITVYAGPNTIRITEEATYGFESYIVTNRSVIYGRIDGRGSAYKGSKMLFEIYRRLGTVEIEDQIIITRTLQEKYSWIDSNRTGIWGWSYGGFSAAMVLATDAESVFKCGISVAPVTSWIYYDSLYTERFMGLPTPEDNQSGYNDTDVSRRVEGMRGKKYMLIHGTADDNVHYQQTMMLNKALVNSDIMFQQQTYTDEAHALGNVFPHLYHTTDRFWANCLGYSH | – | binds to sIgE of honey bee allergic patients; also recorded: exhibited the allergic potential as seen in whole bee venom | virtually all tested bee venom allergic sera have been shown to react | noncross-reactive
